Several values for one entry are separate records, joined by “and”; a condition that tells them apart may be missing. Identical values can stand only once. No end group written: not given here.
Experiments:
Experiment in all cases: fluorescence polarisation; fluorescence anisotropy; 1 nM FlAsH-labeled His6-SUMO-yUfd1 peptide, His6-yNpl4^113–580 in two-fold dilution series; 25 °C; 50 mM Tris-HCl pH 8.0, 100 mM NaCl, 5 mM β-mercaptoethanol, 0.1 g/L BSA
Conditions in all cases: both partners purified
His6-yNpl4^113–580 = target: T1, His6-yNpl4^113–580 (Saccharomyces cerevisiae, UniProt P33755 113-580)
T1 construct: codon-optimized synthetic cDNA; also called WT; WT #1; source: E. coli Rosetta (DE3), purified (Ni-NTA, Resource Q); also in lysate, mixed with cells expressing GST-yUfd1 for co-purification; not shown: His6, N-terminal, kept
T1 sequence (looked up): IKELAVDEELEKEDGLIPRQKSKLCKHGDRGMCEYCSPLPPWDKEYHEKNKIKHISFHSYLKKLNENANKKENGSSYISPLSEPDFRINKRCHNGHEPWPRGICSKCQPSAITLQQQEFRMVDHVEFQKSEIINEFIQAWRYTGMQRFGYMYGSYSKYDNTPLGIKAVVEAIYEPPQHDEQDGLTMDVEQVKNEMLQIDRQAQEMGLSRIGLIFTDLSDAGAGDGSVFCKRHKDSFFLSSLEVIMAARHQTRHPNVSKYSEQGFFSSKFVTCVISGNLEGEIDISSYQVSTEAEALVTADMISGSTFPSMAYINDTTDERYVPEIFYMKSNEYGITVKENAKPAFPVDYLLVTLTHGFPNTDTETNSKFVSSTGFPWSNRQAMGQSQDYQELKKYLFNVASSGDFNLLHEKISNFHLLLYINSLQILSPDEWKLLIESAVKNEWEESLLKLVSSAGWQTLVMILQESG

His6-yNpl4^113–580 F326A = target: T2, His6-yNpl4^113–580 F326A (Saccharomyces cerevisiae, UniProt P33755 113-580, F326A)
T2 construct: also called yNpl4 F326A; source: E. coli Rosetta (DE3), purified (Ni-NTA, Resource Q); not shown: His6, N-terminal, kept
T2 sequence (looked up): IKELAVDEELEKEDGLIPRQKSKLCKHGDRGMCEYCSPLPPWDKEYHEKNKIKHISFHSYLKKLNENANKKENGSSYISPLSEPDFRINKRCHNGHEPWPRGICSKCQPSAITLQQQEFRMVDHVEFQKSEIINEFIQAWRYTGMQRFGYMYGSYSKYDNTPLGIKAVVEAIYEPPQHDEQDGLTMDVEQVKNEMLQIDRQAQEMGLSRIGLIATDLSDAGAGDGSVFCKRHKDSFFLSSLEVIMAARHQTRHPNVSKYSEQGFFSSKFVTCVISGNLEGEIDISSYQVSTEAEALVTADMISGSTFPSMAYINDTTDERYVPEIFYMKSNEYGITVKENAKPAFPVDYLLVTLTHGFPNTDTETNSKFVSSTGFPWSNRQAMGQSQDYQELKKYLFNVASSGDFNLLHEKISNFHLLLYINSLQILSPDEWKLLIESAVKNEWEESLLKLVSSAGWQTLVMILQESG

His6-yNpl4^113–580 L353A = target: T3, His6-yNpl4^113–580 L353A (Saccharomyces cerevisiae, UniProt P33755 113-580, L353A)
T3 construct: also called yNpl4 L353A; source: E. coli Rosetta (DE3), purified (Ni-NTA, Resource Q); not shown: His6, N-terminal, kept
T3 sequence (looked up): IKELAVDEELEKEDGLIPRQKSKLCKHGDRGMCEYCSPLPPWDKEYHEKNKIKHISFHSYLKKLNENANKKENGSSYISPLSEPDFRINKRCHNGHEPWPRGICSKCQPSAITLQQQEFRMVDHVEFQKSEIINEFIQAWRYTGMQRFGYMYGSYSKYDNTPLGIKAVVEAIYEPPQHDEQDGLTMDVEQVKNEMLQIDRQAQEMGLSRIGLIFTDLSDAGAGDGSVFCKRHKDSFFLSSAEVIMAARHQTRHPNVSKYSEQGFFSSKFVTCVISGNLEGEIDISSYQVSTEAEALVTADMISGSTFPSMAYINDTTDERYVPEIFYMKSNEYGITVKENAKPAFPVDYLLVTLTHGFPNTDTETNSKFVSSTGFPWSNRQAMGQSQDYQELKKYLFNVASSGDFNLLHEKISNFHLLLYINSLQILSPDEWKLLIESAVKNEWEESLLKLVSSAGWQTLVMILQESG

His6-yNpl4^113–580 F419A = target: T4, His6-yNpl4^113–580 F419A (Saccharomyces cerevisiae, UniProt P33755 113-580, F419A)
T4 construct: also called yNpl4 F419A; source: E. coli Rosetta (DE3), purified (Ni-NTA, Resource Q); not shown: His6, N-terminal, kept
T4 sequence (looked up): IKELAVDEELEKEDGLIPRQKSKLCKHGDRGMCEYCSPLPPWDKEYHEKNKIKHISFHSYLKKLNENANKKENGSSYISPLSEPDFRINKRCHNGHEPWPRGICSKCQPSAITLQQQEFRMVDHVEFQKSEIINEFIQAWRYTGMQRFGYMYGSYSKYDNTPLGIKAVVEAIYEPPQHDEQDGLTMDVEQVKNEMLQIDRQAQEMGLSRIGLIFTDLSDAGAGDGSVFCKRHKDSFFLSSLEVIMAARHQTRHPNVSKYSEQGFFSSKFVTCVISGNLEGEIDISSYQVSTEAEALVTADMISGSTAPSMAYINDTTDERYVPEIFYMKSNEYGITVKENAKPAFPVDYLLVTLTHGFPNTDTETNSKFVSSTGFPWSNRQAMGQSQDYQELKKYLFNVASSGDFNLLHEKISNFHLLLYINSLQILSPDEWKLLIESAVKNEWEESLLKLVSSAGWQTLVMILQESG

Kd (His6-yNpl4^113–580): 85.7 nM and 99.4 nM
Kd (His6-yNpl4^113–580 F326A): 257 nM
Kd (His6-yNpl4^113–580 L353A): 1380 nM
Kd (His6-yNpl4^113–580 F419A): 158 nM
B1: FlAsH-labeled His6-SUMO-yUfd1^288–305-GWCCPGCC (peptide, UniProt P53044 288-305, looked up)
chain: {His6-SUMO}-EPAKLDLPEGQLFFGFPMGWCCPGCC
modifications: cysteine pairing not given here; also: FlAsH label bound to CCPGCC motif
notes: the assay methods print 280-305; also called yUfd1-FlAsH; yUfd1 WT; source: E. coli Rosetta (DE3) (pCold-SUMO), purified (Ni-NTA, Resource Q), labeled with FlAsH-EDT2; not shown: His6, N-terminal, kept; SUMO, N-terminal, kept

Reference: article PMC6910952 (Nature Communications, 2019)
